Data published in patent CN113061185A (EXCYTE BEIJING PHARMACEUTICAL TECH DEVELOPMENT CO LTD, dated 2021).

T1: BCMA on the surface of BCMA-positive cell lines H929 (NCI-H929) and RPMI8226 (human, UniProt Q02223 1-184)
T1 construct: whole, on cells; Endogenous BCMA of the cell lines; also called 细胞膜表面的BCMA抗原
T1 sequence (looked up): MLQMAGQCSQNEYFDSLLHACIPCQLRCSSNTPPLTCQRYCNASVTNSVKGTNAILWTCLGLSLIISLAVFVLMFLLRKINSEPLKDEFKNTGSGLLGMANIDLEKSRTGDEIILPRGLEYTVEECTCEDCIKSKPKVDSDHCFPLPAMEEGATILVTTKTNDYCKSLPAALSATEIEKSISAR

T2: BCMA-Fc fusion protein (Acrobiosystems, catalogue no. BC7-H5254) (human, UniProt Q02223 1-54)
T2 construct: Bought fusion protein; Used as coated antigen in ELISA; also called BCMA抗原; BCMA-Fc抗原; not shown: human Fc
T2 sequence (looked up): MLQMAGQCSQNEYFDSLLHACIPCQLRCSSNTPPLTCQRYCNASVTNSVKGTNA


Legend:
[1] = target: T1, BCMA on the surface of BCMA-positive …; test: flow cytometry on H929 cells
[2] = target: T1, BCMA on the surface of BCMA-positive …; test: flow cytometry on RPMI8226 cells; EC50 relative to J6
[3] = target: T2, BCMA-Fc fusion protein (Acrobiosystems, …); test: ELISA on BCMA; EC50 relative to J6
[4] = target: T1, BCMA on the surface of BCMA-positive …; test: flow cytometry, antibody titration on RPMI8226 cells
[5] = target: T1, BCMA on the surface of BCMA-positive …; test: flow cytometry on RPMI8226 cells
[6] = target: T2, BCMA-Fc fusion protein (Acrobiosystems, …); test: ELISA; affinity estimated from the EC50 ratio to J6 (J6 taken as 0.2 nM)
[7] = target: T2, BCMA-Fc fusion protein (Acrobiosystems, …); test: ELISA, intrinsic affinity
[8] = target: T1, BCMA on the surface of BCMA-positive …; test: flow cytometry on RPMI8226 cells; EC50 relative to J6; remark: listed apart in the source
[9] = target: T1, BCMA on the surface of BCMA-positive …; test: flow cytometry (FACS), apparent affinity on BCMA-bearing cells

Binder | 细胞结合百分率 (percent of cells bound) [1] [%] | 相对于J6提高倍数 (fold improvement of EC50 over J6) [2] [fold] | Fold of J6 (EC50 ratio) [3] [fold] | EC50 [4] [µg/mL] | 细胞结合百分率 (percent of cells bound) [5] [%] | Kd [6] [nM] | Kd [7] [nM] | fold improvement of EC50 over J6 [8] [fold] | Kd [9] [nM]
B10.3 (affinity-matured mutant of B10) (scFv, also called 突变体B10.3) scFv: QVQLQQSGAEVKKPGSSVKVSCKASGGTFSKSAIQWVRQAPGQGLEWMGGVIPIFGTANYAQKFQGRVTITADESTSTAYMELSSLRSEDTAVYYCARGWYLDLWGRGTLVTVSSGGSSRSSSSGGGGSGGGGLPVLTQPPSASGTPGQRVTISCSGSSNNIGGYSVNWYQQFPGTAPKLLIYRNNQRPSGVPDRFSGSKSGASASLAISGLQSEDEADYYCAAWDDSVIGWLFGTGTQLTVL | 98 | 97.1 | 1.29 | 0.0282 | 54.9 | 0.26 | – | – | –
B10.5 (affinity-matured mutant of B10) (scFv, also called 突变体B10.5) scFv: QVQLQQSGAEVKKPGSSVKVSCKASGGTFSKSAIHWVRQAPGQGLEWMGGVIPIFGTANYAQKFQGRVTITADESTSTAYMELSSLRSEDTAVYYCARGWYLDLWGRGTLVTVSSGGSSRSSSSGGGGSGGGGLPVLTQPPSASGTPGQRVTISCSGSSSNIGGYSVNWYQQFPGTAPKLLIYRNNQRPSGVPDRFSGSKSGASASLAISGLQSEDVADYYCAAWDDSLIGYVFGTGTQLTVL | 97.2 | 67.5 | 1.35 | 0.0406 | 58.2 | 0.27 | – | – | –
B10.4 (affinity-matured mutant of B10) (scFv, also called 突变体B10.4) scFv: QVQLQQSGAEVKKPGSSVKVSCKASGGTFSKSAIMWVRQAPGQGLEWMGGVIPIFGTANYAQKFQGRVTITADESTSTAYMELSSLRSEDTAVYYCARGWYLDLWGRGTLVTVSSGGSSRSSSSGGGGSGGGGLPVLTQPPSASGTPGQRVTISCSGSSNNIGGYSVNWYQQFPGTAPKLLIYRNNQRPSGVPDRFSGSKSGASASLAISGLQSEDEADYYCAAWDDSVIGWLFGTGTQLTVL | 97.9 | 79.9 | 1.55 | 0.0343 | 57.5 | 0.31 | – | – | –
B10.9 (affinity-matured mutant of B10) (scFv, also called 突变体B10.9) scFv: QVQLQQSGAEVKKPGSSVKVSCKASGGTFSKSAIQWVRQAPGQGLEWMGGVIPIFGTANYAQKFQGRVTITADESTSTAYMELSSLRSEDTAVYYCARGWYLDLWGRGTLVTVSSGGSSRSSSSGGGGSGGGGLPVLTQPPSASGTPGQRVTISCSGSSNNIGGYSVNWYQQFPGTAPKLLIYRNNQRPSGVPDRFSGSKSGASASLAISGLQSEDEADYYCAAWDDSEIGWLFGTGTQLTVL | 91.6 | 60.7 | 1.43 | 0.0451 | 42.9 | 0.29 | – | – | –
B10 parental antibody as expressed and purified in Example 3 (antibody, V domains shown, also called 亲本B10; B10亲本抗体) VH: QVQLQQSGAEVKKPGSSVKVSCKASGGTFSSYAISWVRQAPGQGLEWMGGIIPIFGTANYAQKFQGRVTITADESTSTAYMELSSLRSEDTAVYYCARGWYFDLWGRGTLVTVSS VL: LPVLTQPPSASGTPGQRVTISCSGSSSNIGGYSVNWYQQFPGTAPKLLIYRNNQRPSGVPDRFSGSKSGASASLAISGLQSEDEADYYCAAWDDSLIGYVFGTGTQLTVL | 75.3 | 1.74 | – | 1.57 | 5.54 | – | ~10 | ~1.5 | 0.3
